Reference: patent US20230220098A1, “THERAPEUTIC DRUG FOR POLYCYTHEMIA” (PERSEUS PROTEOMICS INC., priority 2019, published 2023)

Assays:
[1] = tested on: HYDREA (registered trademark)-administered patient-derived hematopoietic stem cells; experiment: Erythroblast colony assay, HYDREA-administered patients; assay type: cell-based, human
Method: The peripheral blood of a PV patient, which had been obtained by phlebotomy, was dispensed into three 50-mL centrifuge tubes in an amount of 20 mL each, and an equal amount of PBS (Gibco) was then added to each tube, followed by mixing. Thereafter, 15 mL of LymphoSep, Lymphocyte Separation Media (MP Biomedicals™) was dispensed into […] novel 50-mL centrifuge tubes, and the peripheral blood diluted with PBS was then slowly added thereto in an amount of 30 mL each, and the obtained mixture was then centrifuged at 1,500 rpm at room temperature for 30 minutes. After completion of the centrifugation, the plasma as a supernatant was removed, and a PBMC layer was collected by transfer pipetting. The collected PBMC layer was suspended in 20 mL of PBS+2% FBS (Gibco). The thus obtained suspension was further centrifuged at 1350 rpm at room temperature for 10 minutes, a supernatant was then removed, and the residue was then suspended in 1 to 5 mL of IMDM (Nacalai Tesque)+2% FBS. Using 0.2% Trypan Blue, the number of cells was counted, and the cells were adjusted to 2×10^6 cells/mL by addition of IMDM+2% FBS.
TfR436 and a human IgG1 antibody used as a negative control were each diluted with IMDM+2% FBS to an antibody concentration of […]. MethoCult™ H4534 Classic WithoutEPO (STEMCELL TECHNOLOGIES) was dispensed into seven 14-mL round bottle tubes in an amount of 3 mL each, and 300 jut of the above-prepared PBMC was then added thereto. Thereafter, an antibody-diluted solution or 3.3 μL of IMDM+2% FBS (control) was further added thereto, followed by full mixing. Thereafter, the reaction mixture was seeded on two 35-mm culture dishes in an amount of 1 mL each. This mixture was cultured at 37° C. in a 5% CO2 incubator for 14 days. After completion of the culture, the 35-mm culture dishes were observed under a microscope, and the number of the formed BFU-E or CFU-E colonies was then counted. The colony formation percentage with respect to the number of colonies obtained by a culture without addition of antibodies was then calculated.
Hematopoietic stem cells derived from patients administered with HYDREA (registered trademark) were used as PV patient-derived hematopoietic stem cells, and the activity of TfR436 to inhibit erythroblast colony formation was examined by the same method as that of Example 3. Besides, HYDREA (registered trademark) was administered as hydroxycarbamide (also referred to as “hydroxyurea”) to the patients via oral administration at a daily dose of 500 mg to 2000 mg once or divided over twice or three times. As a result, erythroblast colony formation was inhibited by addition of 100 ng/mL or more TfR436 (Table 2).

Tf-TfR binding = biological target: T1, Tf-TfR binding (Homo sapiens, UniProt P02786); experiment: Tf-TfR binding inhibition ELISA (HRP-labeled Tf on solid-phase sTfR); details: dose 100 ng/mL; FIG. 3
T1 construct: A human TfR extracellular domain (the amino acids at positions 89 to 760); made in house; host or cells: Expi293 cells
Method: The Tf-TfR binding inhibitory activity of an antibody can be measured according to the method described in the after-mentioned “Example 2(2): Comparison between TfR436 antibody and antibodies of other companies in terms of Tf-TfR binding inhibition.” A TfR solution is dispensed into a substrate (a 96-well plate, etc.) and is then left at rest to obtain a solid phase, and thereafter, blocking is carried out. Subsequently, an HRP-labeled Tf solution is dispensed into the substrate, and an antibody is further added thereto, so that they are allowed to react with each other at room temperature. Thereafter, the substrate is washed, and a coloring reagent (TMB, etc.) is then added thereto, so that they are allowed to react with each other. After that, the absorbance is measured using a plate reader. By performing the above-described operations, the Tf-TfR binding inhibitory activity of the antibody can be evaluated.
The sTfR described in Example 1 was adjusted to a concentration of 5.0 μg/mL by addition of PBST, and the diluted solution was then dispensed into MaxiSorp 96-well plate (Nunc) in an amount of 100 μL/well. Thereafter, it was left at rest at 4° C. overnight to obtain a solid phase. […] Thereafter, the absorbance at 450 nm (ref. 620 nm) was measured.

T1 sequence (P02786 89-760): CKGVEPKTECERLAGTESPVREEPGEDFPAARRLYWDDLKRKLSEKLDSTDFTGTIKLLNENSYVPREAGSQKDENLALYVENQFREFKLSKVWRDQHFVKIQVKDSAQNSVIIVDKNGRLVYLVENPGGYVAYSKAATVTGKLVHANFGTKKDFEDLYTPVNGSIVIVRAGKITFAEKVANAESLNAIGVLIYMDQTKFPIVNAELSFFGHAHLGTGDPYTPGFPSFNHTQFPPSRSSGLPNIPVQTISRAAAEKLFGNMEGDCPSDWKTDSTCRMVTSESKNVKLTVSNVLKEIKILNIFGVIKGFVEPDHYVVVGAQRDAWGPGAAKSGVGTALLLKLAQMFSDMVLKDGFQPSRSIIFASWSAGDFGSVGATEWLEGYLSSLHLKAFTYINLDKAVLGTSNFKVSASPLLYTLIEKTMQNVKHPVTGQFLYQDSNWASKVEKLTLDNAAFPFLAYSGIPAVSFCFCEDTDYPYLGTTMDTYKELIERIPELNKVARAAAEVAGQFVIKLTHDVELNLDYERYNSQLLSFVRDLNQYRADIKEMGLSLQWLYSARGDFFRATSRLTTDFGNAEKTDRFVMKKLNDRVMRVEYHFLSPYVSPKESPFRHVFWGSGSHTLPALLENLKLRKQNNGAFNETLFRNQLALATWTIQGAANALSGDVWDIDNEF

B1: TfR436: anti-human transferrin receptor antibody, VH SEQ ID NO: 7 and VL SEQ ID NO: 8, described in WO2014/073641; called PPMX-T003 in Tables 3 and 4 (antibody, listed as Homo sapiens, V domains shown)
VH: DVQLVQSGGGVVQPGRSLRLSCAASGFPFKSYGMHWVRQAPGKGLEWVAVISYDGSNKYYADSVKGRFTISRDNSKNTLYLQMNSLRGEDTAVYYCARDSNFWSGYYSPVDVWGQGTTVTVSS
VL: NFMLTQPHSVSESPGKTVTISCTRSSGSIASNSVQWYQQRPGSAPITVIYEDTQRPSGVPDRFSGSIDSSSNSASLTISGLQTEDEADYYCQSYDSAYHWVFGGGTKLAVL
With B1 the erythroblast colony formation ([1]; 100 ng/mL or more) was “inhibited”, the “colony formation percentage with respect to culture without addition of antibodies” value ([1]; HYDREA-administered pt No. 1, 10 ng/mL) was 109.1% and the “colony formation percentage with respect to culture without addition of antibodies” value ([1]; HYDREA-administered pt No. 1, 100 ng/mL) was 0.0%. The “colony formation percentage with respect to culture without addition of antibodies” value ([1]; HYDREA-administered pt No. 1, 1000 ng/mL) was 0.0%, the “colony formation percentage with respect to culture without addition of antibodies” value ([1]; HYDREA-administered pt No. 23, 10 ng/mL) was 100.0% and the “colony formation percentage with respect to culture without addition of antibodies” value ([1]; HYDREA-administered pt No. 23, 100 ng/mL) was 0.0%. The “colony formation percentage with respect to culture without addition of antibodies” value ([1]; HYDREA-administered pt No. 23, 1000 ng/mL) was 0.0%, the “colony formation percentage with respect to culture without addition of antibodies” value ([1]; HYDREA-administered pt No. 24, 10 ng/mL) was 68.6% and the “colony formation percentage with respect to culture without addition of antibodies” value ([1]; HYDREA-administered pt No. 24, 100 ng/mL) was 0.0%. For the same molecule, the “colony formation percentage with respect to culture without addition of antibodies” value ([1]; HYDREA-administered pt No. 24, 1000 ng/mL) was 0.0%, the “colony formation percentage with respect to culture without addition of antibodies” value ([1]; HYDREA-administered pt No. 26, 10 ng/mL) was 148.9% and the “colony formation percentage with respect to culture without addition of antibodies” value ([1]; HYDREA-administered pt No. 26, 100 ng/mL) was 10.6%. The “colony formation percentage with respect to culture without addition of antibodies” value ([1]; HYDREA-administered pt No. 26, 1000 ng/mL) was 0.0%, the “colony formation percentage with respect to culture without addition of antibodies” value ([1]; HYDREA-administered pt No. 27, 10 ng/mL) was 152.4% and the “colony formation percentage with respect to culture without addition of antibodies” value ([1]; HYDREA-administered pt No. 27, 100 ng/mL) was 0.0%. The “colony formation percentage with respect to culture without addition of antibodies” value ([1]; HYDREA-administered pt No. 27, 1000 ng/mL) was 0.0%, the “colony formation percentage with respect to culture without addition of antibodies” value ([1]; HYDREA-administered pt No. 28, 10 ng/mL) was 112.5% and the “colony formation percentage with respect to culture without addition of antibodies” value ([1]; HYDREA-administered pt No. 28, 100 ng/mL) was 0.0%. The “colony formation percentage with respect to culture without addition of antibodies” value ([1]; HYDREA-administered pt No. 28, 1000 ng/mL) was 0.0% and the “inhibition of the binding of Tf-TfR” value (Tf-TfR binding) was “completely inhibited”.
